# Reference: IntAct's records for PubMed 17721437
# B1: Dynamin-1-like protein (Rattus norvegicus (Rat)), O35303 (parent)
# chain: MEALIPVINKLQDVFNTVGADIIQLPQIVVVGTQSSGKSSVLESLVGRDLLPRGTGVVTRRPLILQLVHVSPEDKRKTTGEENDPATWKNSRHLSKGVEAEEWGKFLHTKNKLYTDFDEIRQEIENETERISGNNKGVSPEPIHLKVFSPNVVNLTLVDLPGMTKVPVGDQPKDIELQIRELILRFISNPNSIILAVTAANTDMATSEALKISREVDPDGRRTLAVITKLDLMDAGTDAMDVLMGRVIPVKLGIIGVVNRSQLDINNKKSVTDSIRDEYAFLQKKYPSLANRNGTKYLARTLNRLLMHHIRDCLPELKTRINVLAAQYQSLLNSYGEPVDDKSATLLQLITKFATEYCNTIEGTAKYIETSELCGGARICYIFHETFGRTLESVDPLGGLNTIDILTAIRNATGPRPALFVPEVSFELLVKRQIKRLEEPSLRCVELVHEEMQRIIQHCSNYSTQELLRFPKLHDAIVEVVTCLLRKRLPVTNEMVHNLVAIELAYINTKHPDFADACGLMNNNIEEQRRNRLARELPSAVSRDKSSKVPSALAPASQEPSPAASAEADGKLIQDNRRETKNVASAGGGIGDGGRIGDGGQEPTTGNWRGMLKTSKAEELLAEEKSKPIPIMPASPQKGHAVNLLDVPVPVARKLSAREQRDCEVIERLIKSYFLIVRKNIQDSVPKAVMHFLVNHVKDTLQSELVGQLYKSSLLDDLLTESEDMAQRRKEAADMLKALQGASQIIAEIRETHLW
# Variants of: B1
# Conditions: with kapca_rat Prkaca
row,Variant,effect of a mutation on the interaction
1,S656A,disrupting interaction
